Target: T1, latent transforming growth factor beta-binding protein 1 fragment LTBP1^1141-1395 (LTBP1^cbEGF14cbEGF15) (human, UniProt Q14766-2 1141-1395)
T1 construct: LTBP1, residues 1141-1395: cbEGF14, TB3, EGF3 and cbEGF15 domains (the C-terminal region); the domains named are the C-terminal ones, which fits the short isoform; also called LTBP1 polypeptides
T1 sequence (looked up): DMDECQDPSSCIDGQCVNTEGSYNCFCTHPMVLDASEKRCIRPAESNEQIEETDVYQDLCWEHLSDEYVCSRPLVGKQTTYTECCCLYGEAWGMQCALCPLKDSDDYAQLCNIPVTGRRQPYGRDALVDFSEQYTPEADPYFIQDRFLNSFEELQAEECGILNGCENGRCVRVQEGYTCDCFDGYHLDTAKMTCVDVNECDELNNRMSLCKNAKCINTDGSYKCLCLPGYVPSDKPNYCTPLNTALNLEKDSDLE
Test: SPR; immobilised partner not stated; running buffer 10 mM HEPES, 150 mM NaCl, 2 mM CaCl2, pH 7.4, 0.005% (v/v) Tween-20; regeneration 50 mM HCl; Biacore T200 (ProteOn system also named)
Conditions: both partners purified

B1: human fibrillin-1 fragment FBN1^113-287+C160Y (FBN1^E2cbEGF1+C160Y) (domain or fragment)
chain: not shown
notes: fibrillin-1, human, residues 113-287 (EGF2, EGF3, Hyb1 and cbEGF1 domains) with the patient mutation C160Y (c.479G>A) in EGF3; also called mutant recombinant fibrillin-1 polypeptides
Kd: 1230 nM

B2: human fibrillin-1 fragment FBN1^113-287 (FBN1^E2cbEGF1), wild type (domain or fragment)
chain: not shown
notes: fibrillin-1, human, residues 113-287: EGF2, EGF3, Hyb1 and cbEGF1 domains; one of them ends in L288, which may be a residue from the vector; also called wild-type fibrillin-1 polypeptides
Kd: 1530 nM
